Test results as given in the RNAGym collection of RNA variant scans (doi:10.7554/elife.90254).

B1: LINE1-full (parent)
chain: UACGUAGGUGGUUUUCCCCUGAUAGUGCUAAGGGGGCCUGGAAGUUUGGACUGGGCAGAGCUCAACACAGCGUGGCAAAGUGGCUGUGGCUAGACUGCCUCUCUGGAUUCCUCGUCACUCAGCAGGGCAUCUCUGAGAGAAAUGCC

Variants of: B1
Assay: self-cleavage, relative activity (ratio to wild type); higher = more cleavage; in vitro, sequencing; the parent is a self-cleaving ribozyme

Variant | self-cleavage
UACGUAGGUGGUUUUCCCCUGAUAGUGCUAAGGGGGCCUGGAAGUUUGGACUGGGCAGGGCUCAACACACCGUGGCAAAGUGGCUGUGGCUAGACUGCCUCUCUGGAUUCCUCGUCACUCAGCAGGGCAUCUCUGAGAGAAAUGCC [A59G G70C] | 0.04
UACGUAGGUGGUUUUCCCCUGAUAGUGCUAAGGGGGCCUGGAAGUUUGGACUGGGCAGUGCUCAACACAGCGUGGCAAAGUGGCUGUGGCUAGACUGCCUCUCUGGAUUCCUCGUCACUCAGCAGGGCAACUCUGAGAGAAAUGCC [A59U U130A] | 0.74
UGCGUAGGUGGUUUUCCCCUGAUAGUGCUAAGGGGGCCUGGAAGUUUGGACUGGGCAGAGCUCAACACAGCGUGGCAAAGUGGCUGUGGCUAGACUGCCUCUCUGGAUUCCGCGUCACUCAGCAGGGCAUCUCUGAGAGAAAUGCC [A2G U112G] | 0.77
UACGUAGGUGGUUUUCCCCUGAUAGAGCUAAGGGGGCCUGGAAGUUUGGGCUGGGCAGAGCUCAACACAGCGUGGCAAAGUGGCUGUGGCUAGACUGCCUCUCUGGAUUCCUCGUCACUCAGCAGGGCAUCUCUGAGAGAAAUGCC [U26A A50G] | 0.92
UACGUAGGUGGUUUUCCCCUGAUAGUGCUAAGGGGGCCUGGAAGUUUGGACUGGGCAGAGCUCAACACAGCGUGGCAAAGUGGCUGUGGCUAGACUGCCUCUCCGGAUUCCUCGUCACUCUGCAGGGCAUCUCUGAGAGAAAUGCC [U104C A121U] | 1.59
UACGUAGGUGGUUUUCCCCUGAUAGUGCUAAGGGGGCCUGGAAGUUUGGACUGGGCAGAGCUCAACACAGCGUGGCAAAGUGGCCGUGGCUAUACUGCCUCUCUGGAUUCCUCGUCACUCAGCAGGGCAUCUCUGAGAGAAAUGCC [U85C G93U] | 0.06
UACGUAGGUGGUUUUCCCCUGAUAGUGCUAAGGGGGCCUGGAAGUUUGGACUGGGCAGAGCUCAACACAGCGUGGCAAAGUGGCUGCGGCUAGACUGCCUCUCUGGAUUCCUCGUCACUAAGCAGGGCAUCUCUGAGAGAAAUGCC [U87C C120A] | 0.18
UACGUAGGUGGUUUUCCCCUGAUAGUGCUAAGGGGGCCUGGAAGUUUGGACUGGGCAGAGCUCAACUCAGCGUGGCAAAGUGGCUGUGGCUAGACUGCCUAUCUGGAUUCCUCGUCACUCAGCAGGGCAUCUCUGAGAGAAAUGCC [A67U C101A] | 0.09
UACGUAGGUGGUUUUCCCCUGAUAGUGCUAAGGCGGCCUGGAAGUUUGGACUGGGCAGAGCUCAACACAGCGUGGCAAAGUGGCUGUGGCUAGACUGCCUCUCUGGAUUCCUCGUCACUCAGCAGGGCAUCUCUGAGAGAAAUGCC [G34C] | 1.47
UACGUAGGUGGUUUUCCCCUGAUAGUGCUAAGGGGGCCUGGAAGUUUGGACUGGGCAGAGCUCAACACAGCGUGGCUAAGUGGCUGUGGCUAGACUGCCUCUCUGGAUUCCUCGUCACACAGCAGGGCAUCUCUGAGAGAAAUGCC [A77U U119A] | 1.51
UACGUAGGUGGUUUUCCCCUGAUAGUGCUAAGGUGGCCUGGAAGUUUGGACUGGGCAGAGCUCAACACAGCGUGGCAAAGUGGCUGUGGCUAGACUGCCUCUCUGGAUUCCUCGUUACUCAGCAGGGCAUCUCUGAGAGAAAUGCC [G34U C116U] | 1.46
UACGUAGGCGGUUUUCCCCUGAUAGUGCUAAGGGGGCCUGGAAGUUUGGACUGGGCAGAGCUCAACACAGCAUGGCAAAGUGGCUGUGGCUAGACUGCCUCUCUGGAUUCCUCGUCACUCAGCAGGGCAUCUCUGAGAGAAAUGCC [U9C G72A] | 1.34
UACGUAGGUGGUUUUCCCCUGAUAGUGCUAAGGGGGCCUGGAAGUUUGGACUGGGCAGAGCUCAACACAGCGUGGCAAAGUGGCUGUGGCUAGACUGCCUCUCUGGAUACCUCGUCACUCAGCAGGGCAUCUCGGAGAGAAAUGCC [U109A U134G] | 1.25
UACGUAGGUGGUUUUCCCCUGAUAGUGCUAAGUGGGCCUGGAAGUUUGGACUGGGCAGAGCUCAACACAGCGUGGCAAAGUGGCUGUGGCUAGACUGCCUCUCUGGAUUCCUCAUCACUCAGCAGGGCAUCUCUGAGAGAAAUGCC [G33U G114A] | 1.36
UACGUAGGUGGUUUUCCCCUGAUAGUGCUAAGGGGGCCUGGAAGUUUGGACUGGGCAGAGCUCAACACAGCGUGGCAAAGUGGCUGUGGCUAGACUGCCUCUCUGGAAUCCCCGUCACUCAGCAGGGCAUCUCUGAGAGAAAUGCC [U108A U112C] | 2.53
UACGUAGGUGGUUUUCCCCUGAUAGUGCUAAGGGGGCCUGGAAGUUUGGACUGGGCAGAGCUCAACACAGCGUGGCUAAGUGGCUGUGGCUAGACUGCCUCUCUGGAUUCCUCGUCACUCAGCAGGGCAUCUCUGAGGGAAAUGCC [A77U A138G] | 1.75
UACGUAGGUGGUUUUCCCCUGAUAGUACUAAGGGGGCCUGGGAGUUUGGACUGGGCAGAGCUCAACACAGCGUGGCAAAGUGGCUGUGGCUAGACUGCCUCUCUGGAUUCCUCGUCACUCAGCAGGGCAUCUCUGAGAGAAAUGCC [G27A A42G] | 0.99
UACGUAGGUGGUCUUCCCCUGAUAGUGCUAAGGGGGCCUGGAAGUUUGGACUGGGCAGAGCUCAACACAGCGUGGCAAAGUGGCUGUGGCUAGACUGCCUCUCUGGAUUCCUUGUCACUCAGCAGGGCAUCUCUGAGAGAAAUGCC [U13C C113U] | 1
UACGUAGGUGGUUUUCCCCGGAUAGUGCUAAGGGGGCCUGGAAGUUUGGACUGGGCAGAGCUCAACUCAGCGUGGCAAAGUGGCUGUGGCUAGACUGCCUCUCUGGAUUCCUCGUCACUCAGCAGGGCAUCUCUGAGAGAAAUGCC [U20G A67U] | 0.11
UACGUAGGUGGUUUUCCCCUGAUAGUGCUAAGGGGGCCUGGAAGUUUGGACUGGGCAGAGCUCGACACAGCGUGGCAAAGUGGCUGUGGCUAGACCGCCUCUCUGGAUUCCUCGUCACUCAGCAGGGCAUCUCUGAGAGAAAUGCC [A64G U96C] | 0.15

Variant | self-cleavage
UACGUAGGUGGUUUUCCCCUGAUAGUGCUAAGGGGGCCUGGAAGUUUGGACUGGGCAGAGCGCAACACAGCGUGGCAAAGUGGCUGUGGCUAGACUGCCUCUCUGGAUUCCUCGUCACUCAGCAGGGCAUCUCUGAGGGAAAUGCC [U62G A138G] | 0.09
UACGUAGGUGGUUUUCCCCUGAUAGUGCUAAGGGGGCCUGGAAGUUUGGACUGGGCAGAGCCCAACACAGCGUGGCAAAGUGGCUGUGGCUAGACUGCCUCUCUGGAUUCCUCGUCACUCGGCAGGGCAUCUCUGAGAGAAAUGCC [U62C A121G] | 0.1
UACGUAGGUGGUUUUCCCCUGAUAGUGCUAAGGGGGCCUGGAAGUUUGGACUGGGCAGAGCUCAACGCAGCGUGGUAAAGUGGCUGUGGCUAGACUGCCUCUCUGGAUUCCUCGUCACUCAGCAGGGCAUCUCUGAGAGAAAUGCC [A67G C76U] | 0.62
UACGUAGGUGGUUUUCCCCUGAUAGUGCUAAGGGGGCCUGGAAGUUUGGGCUGGGCAGAGCUCAACACAGCGUGGCAAAGUGGCAGUGGCUAGACUGCCUCUCUGGAUUCCUCGUCACUCAGCAGGGCAUCUCUGAGAGAAAUGCC [A50G U85A] | 0.05
UACGUAGGUGGUUUUCCCCCGAUAGUGCUAAGGGGGCCUGGUAGUUUGGACUGGGCAGAGCUCAACACAGCGUGGCAAAGUGGCUGUGGCUAGACUGCCUCUCUGGAUUCCUCGUCACUCAGCAGGGCAUCUCUGAGAGAAAUGCC [U20C A42U] | 1.06
UACGUAGGUGGUUUUCCCCUGAUAGUGCUAAGGGGGCCUGGAAGAUUGGACUGGGCAGAGCUCAACACAGCGUGGCAAAGUGGCUGUGGCUAGACUGCCUCUCUGGAUUCCCCGUCACUCAGCAGGGCAUCUCUGAGAGAAAUGCC [U45A U112C] | 1.36
UACGUAGGUGGUUUUCCCCUGAUAGUGCUAAGGGGGCCUGGAAGUUUGGACUGGGCAGAGCUCAACACAGCGUGGCAAAGUGUCUGUGGCUAGACUGCCUCUCUGGAUUCCUCGUCACUCAGCAGGGCAUCUCUGAGAGAGAUGCC [G83U A141G] | 0.99
UACGUAGGUGGUUUUCCCCUGAUAGUGCUAAGGGGGCCUGGAAGUUUGGACUGGGCAGAGCUCAACACAGCGUGGCAAAGCGGCUGUGGCUAGACUGCCUCUCUGGAUUCCUCGUCACUCAGCAGGGCAUCUCUGAGAGAAAUACC [U81C G144A] | 0.42
UACGUAGGUGGUUUUCCCCUGAUAGUGCUAAGGGGGCCUGGAAGUUUGGACUGGGCAGAGCUCAACACAGCGUGGCAAAGUGGCCGUGGCUAGACUGCCUCUCUGGAUUCCUCGUCACUCAGCAGGGCAUCUCUGAGGGAAAUGCC [U85C A138G] | 0.17
UACGUAGGUGGUUUUCCCCUGAUAGCGCUAAGGGGGCCUGGAAGUUUGGACUGGGCAGAGCUCAACACAGCGUGGCAAAGUGGCUGUGGCUAGACUGCCUCUCUGGAUUCCUCGUCACUCAGCAGGGCAUCUCUGAGAGAAAUACC [U26C G144A] | 1.02
UACGUAGGUGGUUUUCCCCUGAUAGUGCUAAGGGGGCCUGGAAGUUUGGACUGGGCAGAGCUCAACACAGCGUGGCAAAGUGGCUGUGGCUAGACUGCCUCUCUGGAUUCCACGUCACUCAGCAGGGCAUCUCUGAGAGAACUGCC [U112A A142C] | 1.46
UACGUAGGUGGUUUUCCCCUGAUAGUACUUAGGGGGCCUGGAAGUUUGGACUGGGCAGAGCUCAACACAGCGUGGCAAAGUGGCUGUGGCUAGACUGCCUCUCUGGAUUCCUCGUCACUCAGCAGGGCAUCUCUGAGAGAAAUGCC [G27A A30U] | 1.58
AACGUAGGUGGUUUUCCCCUGAUAGUGCUAAGGGGGCCUGGAAGUUUGGACUGGGCAGAGCUCAACACAGCGUGGCAAAGUGGCGGUGGCUAGACUGCCUCUCUGGAUUCCUCGUCACUCAGCAGGGCAUCUCUGAGAGAAAUGCC [U1A U85G] | 0.12
UACGUAGGUGGUUUUCCCCUGAUAGUGCUAAGGGGGCCUGGAAGUUUGGACUGGGCAGAGCUCAACACAGCGUGGCAAAGUGGCUGUGGCUAGACUGCCUCUCUGGACUCCUCGUCUCUCAGCAGGGCAUCUCUGAGAGAAAUGCC [U108C A117U] | 1.83
UACGUAGGUGGUUUUCCCCUGAUAGUGCUAGGGGGGCCUGGAAGUUUGGACUGGGCAGAGCUCAACACAGCGUGGCAAAGUGGCUGUGGCUAGACUGCCUCUCUGGAUUCCUCGCCACUCAGCAGGGCAUCUCUGAGAGAAAUGCC [A31G U115C] | 1.37
UCCGUAGGUGGUUUUCCCCUGAUAGUGCUAAGGGGGCCUGGAAGUUUGGACUGGGCAGAGCUCAACACAGCGUGGCAAAGUGGCUGUGGCUAGACUGCCUCUCUGGAUUCCUCGUCACUCAGCAGGGCACCUCUGAGAGAAAUGCC [A2C U130C] | 1.19
UACGUAGGUGGGUUUCCCCUGAUAGUGCUAAGGGGGCCUGGAAGUUUGGACUGGGCAGAGCUCAACACAGCGUGGCAAAGUGGCUGUGGCUAGACUGCCUCUCUGGAUUCCUCGUCACUCAGCAGGGCAUCUCUGAGAGAAAUGGC [U12G C145G] | 0.99
UACGUAGGUGGUUUUCCCCUGAUAGUGCUAAGGGGGCCUGGAAGUUUGGACUGGCCAGAGCUCAACACAGCGUGGCAAAGUGGCUGCGGCUAGACUGCCUCUCUGGAUUCCUCGUCACUCAGCAGGGCAUCUCUGAGAGAAAUGCC [G55C U87C] | 0.37
UACGUAGGUGGUUUUCCCCUGAUAGUGCUAAGGGGGCCUGGAAGUUUGGACUGGGCAGAGCUCAACACAGCGUGGCCAAGUGGCUGUGGCUAGACUGCCUCUCUGGAUUCCUCGUCACUCAGCAGGGCAUCCCUGAGAGAAAUGCC [A77C U132C] | 1.19
